Measured values reported in patent US7202329 (MYRIAD GENETICS, dated 2007).

What was measured:
Assay in all cases: yeast two-hybrid
[1] = target: T1, mitotic spindle coiled-coil related protein (aa 701-1082) (UniProt Q96R06 701-1082)
T1 construct: range 701-1082
T1 sequence (looked up): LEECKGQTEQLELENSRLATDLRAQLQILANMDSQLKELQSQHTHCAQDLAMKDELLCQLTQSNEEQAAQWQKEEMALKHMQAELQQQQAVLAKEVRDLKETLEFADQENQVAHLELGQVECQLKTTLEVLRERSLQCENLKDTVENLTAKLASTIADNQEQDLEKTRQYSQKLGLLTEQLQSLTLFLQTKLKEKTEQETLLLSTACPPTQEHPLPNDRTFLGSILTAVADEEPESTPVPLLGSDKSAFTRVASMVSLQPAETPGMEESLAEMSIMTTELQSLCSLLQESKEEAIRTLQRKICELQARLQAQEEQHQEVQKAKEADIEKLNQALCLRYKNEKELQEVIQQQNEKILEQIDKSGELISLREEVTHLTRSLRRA

[2] = target: T2, serum deprivation response (aa 75-258) (UniProt O95810 75-258)
T2 construct: range 75-258
T2 sequence (looked up): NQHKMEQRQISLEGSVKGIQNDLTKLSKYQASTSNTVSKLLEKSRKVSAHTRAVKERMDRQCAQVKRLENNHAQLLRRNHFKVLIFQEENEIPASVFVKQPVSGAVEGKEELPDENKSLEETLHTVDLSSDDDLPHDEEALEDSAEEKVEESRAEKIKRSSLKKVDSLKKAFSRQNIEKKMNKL

[3] = target: T3, intersectin 1 (aa 210-633) (UniProt Q15811 210-633)
T3 construct: range 210-633
T3 sequence (looked up): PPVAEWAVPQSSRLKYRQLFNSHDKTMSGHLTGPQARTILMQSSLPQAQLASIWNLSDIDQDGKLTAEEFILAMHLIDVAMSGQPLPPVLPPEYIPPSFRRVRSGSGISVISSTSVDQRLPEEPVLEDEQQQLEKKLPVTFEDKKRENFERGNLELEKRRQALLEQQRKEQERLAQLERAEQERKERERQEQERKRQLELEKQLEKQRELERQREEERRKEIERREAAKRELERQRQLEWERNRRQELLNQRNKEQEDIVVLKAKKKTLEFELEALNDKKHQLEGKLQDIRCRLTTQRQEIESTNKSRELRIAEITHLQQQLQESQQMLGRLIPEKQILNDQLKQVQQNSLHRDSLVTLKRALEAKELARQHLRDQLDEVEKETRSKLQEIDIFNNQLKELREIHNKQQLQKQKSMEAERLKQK

[4] = target: T4, hook2 protein (aa 290-555) (UniProt Q96ED9 290-555)
T4 construct: range 290-555
T4 sequence (looked up): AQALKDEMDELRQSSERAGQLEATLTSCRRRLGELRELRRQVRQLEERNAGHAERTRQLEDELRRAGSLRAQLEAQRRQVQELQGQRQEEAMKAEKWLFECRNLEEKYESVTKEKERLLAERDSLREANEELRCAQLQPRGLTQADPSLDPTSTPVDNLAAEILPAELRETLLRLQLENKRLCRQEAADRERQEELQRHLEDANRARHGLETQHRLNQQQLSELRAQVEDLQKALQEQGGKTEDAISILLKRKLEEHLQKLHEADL

[5] = target: T5, mitotic spindle coiled-coil related protein (aa 723-1012) (UniProt Q96R06 723-1012)
T5 construct: range 723-1012
T5 sequence (looked up): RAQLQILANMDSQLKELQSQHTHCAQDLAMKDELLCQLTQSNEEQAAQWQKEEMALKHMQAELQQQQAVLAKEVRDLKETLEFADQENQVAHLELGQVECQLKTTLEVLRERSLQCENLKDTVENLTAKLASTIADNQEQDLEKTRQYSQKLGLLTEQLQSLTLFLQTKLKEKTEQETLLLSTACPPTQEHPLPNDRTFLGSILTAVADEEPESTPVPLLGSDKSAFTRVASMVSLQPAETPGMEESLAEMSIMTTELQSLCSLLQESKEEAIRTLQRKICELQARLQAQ

[6] = target: T6, GTPase-activating protein 1 (aa 1392-1657) (UniProt P46940 1392-1657)
T6 construct: range 1392-1657; also called IQGAP1; IQGAP
T6 sequence (looked up): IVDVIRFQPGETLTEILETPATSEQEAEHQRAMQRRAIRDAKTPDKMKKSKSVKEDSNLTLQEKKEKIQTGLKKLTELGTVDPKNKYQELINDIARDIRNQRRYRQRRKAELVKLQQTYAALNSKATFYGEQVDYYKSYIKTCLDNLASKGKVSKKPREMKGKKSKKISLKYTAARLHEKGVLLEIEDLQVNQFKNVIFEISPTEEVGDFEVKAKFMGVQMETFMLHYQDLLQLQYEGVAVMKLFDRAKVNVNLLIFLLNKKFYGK

[7] = target: T7, catenin, GenBank U96136 (aa 684-1148) (UniProt Q9UQB3 684-1148)
T7 construct: range 684-1148
T7 sequence (looked up): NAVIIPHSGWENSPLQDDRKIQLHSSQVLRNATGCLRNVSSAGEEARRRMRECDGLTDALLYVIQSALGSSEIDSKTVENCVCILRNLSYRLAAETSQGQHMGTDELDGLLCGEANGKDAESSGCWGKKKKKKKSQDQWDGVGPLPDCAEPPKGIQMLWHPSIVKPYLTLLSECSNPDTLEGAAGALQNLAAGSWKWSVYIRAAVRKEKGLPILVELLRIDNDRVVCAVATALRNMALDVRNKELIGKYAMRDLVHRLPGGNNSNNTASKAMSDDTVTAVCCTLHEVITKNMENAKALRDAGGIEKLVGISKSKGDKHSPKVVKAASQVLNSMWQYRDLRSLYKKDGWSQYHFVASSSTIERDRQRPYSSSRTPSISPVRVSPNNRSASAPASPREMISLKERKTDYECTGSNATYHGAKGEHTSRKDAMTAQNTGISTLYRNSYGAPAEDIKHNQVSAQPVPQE

[8] = target: T8, GTPase-activating protein 1 (aa 1419-1657) (UniProt P46940 1419-1657)
T8 construct: range 1419-1657; also called IQGAP1; IQGAP
T8 sequence (looked up): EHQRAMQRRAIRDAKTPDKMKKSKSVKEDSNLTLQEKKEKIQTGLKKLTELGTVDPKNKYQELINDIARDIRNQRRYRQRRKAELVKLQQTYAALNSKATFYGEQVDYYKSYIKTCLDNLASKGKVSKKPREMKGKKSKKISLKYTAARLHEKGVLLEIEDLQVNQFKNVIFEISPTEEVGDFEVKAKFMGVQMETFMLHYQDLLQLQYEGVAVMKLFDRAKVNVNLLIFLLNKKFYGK

Measured: binding result

B1: Tsg101 (aa 240-391) (other, human, UniProt Q99816 240-390, looked up)
chain: WRMKEEMDRAQAELNALKRTEEDLKKGHQKLEEMVTRLDQEVAEVDKNIELLKKKDEELSSALEKMENQSENNDIDEVIIPTAPLYKQILNLYAEENAIEDTIFYLGEALRRGVIDLDVFLKHVRLLSRKQFQLRALMQKARKTAGLSDLY
notes: range 240-391; also called C-terminal fragment of Tsg101; amino acid residues 240-390
binds: all assays above
